Measured values from article PMC314469, “Protein Interaction Networks by Proteome Peptide Scanning” (PLoS Biology, 2004).

T1: amphyphisin SH3 (AMPH_HUMAN), P49418
T1 chain: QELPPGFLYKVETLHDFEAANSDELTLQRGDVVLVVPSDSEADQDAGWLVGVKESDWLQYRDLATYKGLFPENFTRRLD

B1: Q96JH1 1030-1044 (peptide)
chain: RRRSPPRPPSRPAR
B2: Q9BZW7 5-18 (peptide)
chain: RSKSPRRPSPTARG
B3: O43161 2760-2773 (peptide)
chain: RQQTLPRPMKTLQR
B4: Q96Q34 14-27 (peptide)
chain: RRARPRRPREAPAP
B5: O60449 754-767 (peptide)
chain: AVKVFHRPWRRGWH
B6: Q9NR56 273-286 (peptide)
chain: AVKSLKRPLEATFD
B7: Q8WW30 14-28 (peptide)
chain: RRDPPRRPPRNGYG
B8: Q9NWI3 259-272 (peptide)
chain: RRPALHRPIKVNLL
B9: O95996 1839-1852 (peptide)
chain: RSRSLHRPAKTSEL
B10: Q9Y6X4 343-356 (peptide)
chain: RSGNLKRPKIGKRF
B11: Q96EZ6 93-106 (peptide)
chain: RRLQPRRPGYPPRP
B12: Q9Y520 1361-1374 (peptide)
chain: RPSTLRRPAYRDNQ
B13: Q9NRK9 487-500 (peptide)
chain: RSWWPQRPGRWLSR
B14: P46092 337-350 (peptide)
chain: RRGSPRRPRLSSSS
B15: Q9HCU0 92-105 (peptide)
chain: RQSQLQRPLRGFTW
B16: Q9H5Q5 226-240 (peptide)
chain: RRNVPMKPPDEAKV
B17: Q9HDB5 8-21 (peptide)
chain: RRSPPRRPAWTLGI
B18: Q9NPP7 72-86 (peptide)
chain: RSSGPERPPHGLPL
B19: Q14839 1380-1393 (peptide)
chain: RSEAPRRPSRKGLR
B20: Q8TDP0 171-185 (peptide)
chain: RPTVPARPPATHPR
B21: Q9Y520 1420-1434 (peptide)
chain: RRQRPTRPPRQDKP
B22: O60486 5-18 (peptide)
chain: RRKAPPRPPRPAAP
B23: Q9BV18 42-55 (peptide)
chain: RRSRLRRPAVRPTD
B24: P31152 530-543 (peptide)
chain: RRQPPVRPGRVHLP
B25: Q9H6G5 120-133 (peptide)
chain: RQHLPERPRRSPLS
B26: Q9HCK4 226-239 (peptide)
chain: RPTFLRRPINQVVL
B27: Q9H3F6 298-311 (peptide)
chain: RRIHIKRPDDRAHL
B28: O43541 61-74 (peptide)
chain: RPVAPRRPRDAVGQ
B29: Q96MS0 257-270 (peptide)
chain: RPSFLRRPVNQVVL
B30: P17600 586-600 (peptide)
chain: RQGPPQKPPGPAGP
B31: Q9P0P1 47-60 (peptide)
chain: AVMALRRPGERQYR
B32: Q9NR61 553-566 (peptide)
chain: RQLRLRRPDDGSRE
B33: P53814 641-654 (peptide)
chain: AATQPLRPPRGTAA
B34: Q15532 247-261 (peptide)
chain: RQIPPYRPPQQGPP
B35: Q92560 382-396 (peptide)
chain: RSRVPVRPPQQYSD
B36: Q9BQA8 78-92 (peptide)
chain: RRQPPARPPGPSTD
B37: Q9BXX0 822-836 (peptide)
chain: RPVLPQRPPEERPP
B38: Q9Y2N3 421-434 (peptide)
chain: RSQTPERPAKKIRE
B39: Q14739 82-96 (peptide)
chain: RSRSPGRPPKSARR
B40: Q9NU00 50-63 (peptide)
chain: AVPPPSRPQRLSSL
B41: Q96M62 296-309 (peptide)
chain: RRLALRRPEILVQP
B42: Q9Y5R2 356-370 (peptide)
chain: RQPRPPRPPLGDRP

Target: T1, amphyphisin SH3 (AMPH_HUMAN), P49418
Assay: SPOT array

normalised SPOT signal, Boehringer light units (BLU); mean over the file's lines of this peptide	Binder
21500	B1
41.9	B2
79.1	B3
35.2	B4
787	B5
23.6	B6
8150	B7
111	B8
170	B9
13.4	B10
58.2	B11
44.5	B12
3180	B13
41.2	B14
1210	B15
2290	B16
88.8	B17
39.9	B18
12500	B19
8140	B20
6770	B21

normalised SPOT signal, Boehringer light units (BLU); mean over the file's lines of this peptide	Binder
1450	B22
41.8	B23
4120	B24
5990	B25
169	B26
20.8	B27
3660	B28
43.9	B29
46.6	B30
38.9	B31
39.7	B32
11900	B33
170	B34
133	B35
1490	B36
252	B37
283	B38
154	B39
15600	B40
9.3	B41
1470	B42

Target: endophilin SH3 (SH3G2_HUMAN), Q99962
Assay: SPOT array

normalised SPOT signal, Boehringer light units (BLU); mean over the file's lines of this peptide	Binder
9450	B1
121	B2
67.7	B3
144	B4
38.8	B5
20.3	B6
5040	B7
109	B8
187	B9
50.1	B10
325	B11
112	B12
558	B13
11.2	B14
235	B15
147	B16
1580	B17
752	B18
9710	B19
14800	B20
3120	B21

normalised SPOT signal, Boehringer light units (BLU); mean over the file's lines of this peptide	Binder
9570	B22
28.4	B23
7420	B24
11100	B25
575	B26
70.2	B27
1530	B28
171	B29
325	B30
206	B31
61.3	B32
1480	B33
68	B34
831	B35
9600	B36
420	B37
587	B38
3690	B39
7470	B40
31.7	B41
4010	B42
